Article PMC11610669, “A Spectroscopic Study on the Amyloid‐β Interaction with Clicked Peptide‐Porphyrin Conjugates: a Vision Toward the Detection of Aβ Peptides in Aqueous Solution” (Chembiochem, 2024)

Key:
Aβ42 [1] = target: T1, Aβ42 (Homo sapiens, UniProt P05067); experiment: UV-Vis of conjugates with equimolar Aβ42; assay type: biochemical; details: 5 μM conjugate, equimolar Aβ42, 10 mM phosphate buffer pH 7.4, 0, 24, 48 and 120 h
Method: (§1) The UV‐Vis spectra of porphyrin‐peptide conjugates (5 μM) were recorded in the presence of an equimolar ration of Aβ42 monomers at 0, 24, 48 and 120 h (Figure 2S). […] Therefore, the interaction of the peptide‐porphyrin conjugates with Aβ was further studied using CD spectroscopy. The Aβ42 aggregation process was monitored either in the absence or in the presence of an equimolar amount of the conjugated peptides. A series of CD control experiments were preventively carried out to assess the propensity of the porphyrin‐peptide conjugates to adopt a β‐sheet conformation. The corresponding CD curves are shown in the supplementary material (Figure 3S). […] We then evaluated the ability of the porphyrin‐peptide conjugates to affect the Aβ42’s aggregation process. This was accomplished by running a series of CD experiments on the binary systems in the same experimental conditions as the control CD measurements. A 5 μM Aβ42 sample was used as a positive control of the aggregation process (Figure 3, panel a). In this case, the curve profiles indicate that at 0 h, Aβ42 is predominantly in the random coil conformation, as evidenced by the negative ellipticity around 200 nm. […] The typical dichroic profile characterized by a negative ellipticity at λ=222 nm and a positive band at λ=200 is indicative of this event (Figure 3, panel a).
(§2) Spectra were recorded on a Jasco V‐670 Spectrophotometer at room temperature. All measurements were performed in the 300–650 nm wavelength region, in a 10 mM phosphate buffer solution at pH 7.4 using a 1 cm path length quartz cell. The spectra of all the peptide‐porphyrin conjugates, either in the absence or in the presence of equimolar Aβ42, were acquired at 5 μM. In some cases, the same sample solution was used to run the CD spectra. The final concentrations of Aβ42 and peptide conjugates were 5 μM (1 : 1 molar ratio).

Aβ42 [2] = target: T1, Aβ42; experiment: bis-Ans fluorescence anti-fibrillogenic assay; assay type: biochemical; details: Aβ42 20 μM, 1:1, 60 μM Bis-Ans solution, phosphate buffer pH 7.4, 37 °C, 65 h, ex/em 385/510 nm, triplicate
From the text: We also carried out fluorescence assays to evaluate the anti‐fibrillogenic ability of the porphyrin‐peptide conjugates. We used the bis‐Ans (4,4’‐Dianilino‐1,1’‐binaphtyl‐5,5’disulphonic acid) as a chromophore instead of the typical Th−T (Thioflavin‐T), to avoid any potential interference that might occur between the porphyrin and Th−T, in both the excitation and emission wavelength regions. The bis‐Ans probe is sensitive to Aβ fibril formation, and it specifically binds to solvent‐exposed hydrophobic surfaces leading to an increase in its fluorescence emission maximum at 510 nm, in our case.[47] The bis‐Ans fluorescence kinetics were recorded with Aβ42 (20 μM) alone or in the presence of the porphyrin‐peptide conjugates at a 1 : 1 molar ratio. The kinetic profiles of the porphyrin‐peptide conjugates in the absence of Aβ42 were also acquired for comparison (Figure 4S). […] The obtained fluorescence intensities were compared with the values obtained for Aβ42 alone.
Bis‐Ans fluorescence kinetics were measured on a Flash Thermo Varioskan spectrofluorometer with excitation and emission at 385 and 510 nm, respectively. Aβ42, alone or in the presence of the porphyrin‐peptide conjugates in a 1 : 1 molar ratio, was dissolved in 10 mM aq NaOH (30 μL). […] Readings were taken every 10 min, after weak shaking for 10 s. The fluorescence intensity was monitored for 65 h. […]

[3] = UV-Vis self-aggregation of the conjugates; assay type: physicochemical; details: UV-Vis 300–650 nm, 5 μM, 10 mM phosphate buffer pH 7.4, room temperature, 0–120 h
Method: We first studied the effects of peptide conjugation on the porphyrin chromophore, by UV‐Vis spectra in the region between 300–650 nm. The spectra were recorded using a solution of 5 μM Porphyrin‐peptide conjugate in 10 mM phosphate buffer pH 7.4. The UV‐Vis profile of the porphyrin precursor MCPTPyP, recorded at the same concentration, is also shown for the sake of comparison (Figure 1).
(§3) Peptide conjugation influences the spectral features of the porphyrin chromophore as evidenced by the red shift in the absorption maximum in the region of the Soret band region. The Q bands are also affected, particularly in the Cu‐Ph‐Pep and Zn‐Ph‐Pep compounds (Figure 1). In this case the presence of a metal ion within the porphyrin's core might contribute to the observed spectral profile of these compounds. […] The fluorescence spectra of the investigated systems were also acquired in view of the interaction of the studied conjugates with cells (see below biological section).[41] The fluorescence spectra were recorded with the photoexcitation at 425±5 nm, in 10 mM phosphate buffer pH 7.4 and 5 μM concentration. The emission spectrum of the porphyrin precursor MCPTPyP ( Ph ) was also obtained for the sake of comparison.
as §2

[4] = CD control: β-sheet propensity of the conjugates alone; assay type: physicochemical; details: 10 mM phosphate buffer pH 7.4, room temperature, up to 120 h
Method: as §1
Spectra were recorded on a J‐810 spectrometer (Jasco, Japan) under a constant flow of N2 at room temperature. The CD measurements were performed in the wavelength regions (190–260 nm, 195–350 nm and 350–500 nm) using a 1 cm path length quartz cell. All aggregation kinetics were monitored up to 120 hours. The CD spectra were recorded for Aβ42 (5 μM and 20 μM) monomer in the absence or in the presence of porphyrin‐peptide conjugates (5 μM and 20 μM for the 1 : 1 molar ratios). Monomerized samples of Aβ42 (5 μM and 20 μM) were solubilized in 50 μL of NaOH 20 mM (2,5 %) and after were diluted with 1950 μL of 10 mM phosphate buffer at pH 7.4 pure or containing the solubilized conjugates.

[5] = Porphyrin fluorescence in buffer; assay type: physicochemical; details: 5 μM, 10 mM phosphate buffer pH 7.4, excitation 425 nm; vs pristine MCPTPyP
From the text: as §3
Spectra were recorded on a Horiba Fluoro‐max‐4 spectrofluorometer from 440–800 nm in 1 nm steps, at an excitation wavelength λexc=425 nm, at room temperature. The final fluorescence spectra represent averages of at least three measurements. Bandwidths of 5 nm for both excitation and emission were used. The sample of the compound used to record absorption spectra were the same as those for the CD spectra.

T1 sequence (P05067 672-713 limits assumed): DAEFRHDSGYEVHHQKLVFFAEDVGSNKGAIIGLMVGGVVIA

COC(=O)[C@H](Cc1cn(CCCC[C@H](NC(=O)CNC(C)=O)C(=O)N2CCC[C@H]2C(=O)NCC(=O)N[C@@H](CCCCN)C(=O)N[C@@H](CC(C)C)C(=O)N[C@H](C(=O)N[C@@H](Cc2ccccc2)C(=O)N[C@@H](Cc2ccccc2)C(N)=O)C(C)C)nn1)NC(=O)c1ccc(-c2c3nc(c(-c4cc[n+](C)cc4)c4ccc([nH]4)c(-c4cc[n+](C)cc4)c4nc(c(-c5cc[n+](C)cc5)c5ccc2[nH]5)C=C4)C=C3)cc1 [Zn‐Ph‐Pep]
UV-Vis spectral change in presence of Aβ42 (Aβ42 [1]): may suggest a rapid formation of aggregated species | effect on Aβ42 fibril formation (bis-Ans fluorescence) (Aβ42 [2]): might support or even accelerate Aβ42’s fibril formation | self-aggregation [3]: slight propensity to self‐aggregation | propensity to adopt β-sheet conformation (conjugate alone) [4]: being faster in this process | fluorescence emission intensity [5]: somewhat decreased
